Source: patent publication US7026148

Target: bovine calmodulin (Sigma), P62157

B1: FLAG-tagged wild type DRP-1 (DAP-kinase-related protein 1) (protein)
chain: MEPFKQQKVEDFYDIGEELGSGQFAIVKKCREKSTGLEYAAKFIKKRQSRASRRGVSREEIEREVSILRQVLHHNVITLHDVYENRTDVVHILELVSGGELFDFLAQKESLSEEEATSFIKQILDGVNYLHTKKIAHFDLKPENIMLLDKNIPIPHIKLIDFGLAHEIEDGVEFKNIFGTPEFVAPEIVNYEPLGLEADMWSIGVITYILLSGASPFLGDTKQETLANITSVSYDFDEEFFSHTSELAKDFIRKLLVKETRKRLTIQEALRHPWITPVDNQQAMVRRESVVNLENFRKQYVRRRWKLSFSIVSLCNHLTRSLMKKVHLRPDEDLRNCESDTEEDIARRKALHPRRRSSTS
amount of phosphorylated MLC in the in vitro kinase assay: The addition of Ca2+/calmodulin to the reaction mixture increased the amount of phosphorylated MLC
